T1: Human CD228 protein (human, UniProt P08582 20-708, limits assumed)
T1 construct: Recombinant protein made in CHO cells, purified over a Ni column; The printed entry begins with the leader (MRGPSG...) and ends with ten His; also called hCD228; CD228-His protein
T1 sequence: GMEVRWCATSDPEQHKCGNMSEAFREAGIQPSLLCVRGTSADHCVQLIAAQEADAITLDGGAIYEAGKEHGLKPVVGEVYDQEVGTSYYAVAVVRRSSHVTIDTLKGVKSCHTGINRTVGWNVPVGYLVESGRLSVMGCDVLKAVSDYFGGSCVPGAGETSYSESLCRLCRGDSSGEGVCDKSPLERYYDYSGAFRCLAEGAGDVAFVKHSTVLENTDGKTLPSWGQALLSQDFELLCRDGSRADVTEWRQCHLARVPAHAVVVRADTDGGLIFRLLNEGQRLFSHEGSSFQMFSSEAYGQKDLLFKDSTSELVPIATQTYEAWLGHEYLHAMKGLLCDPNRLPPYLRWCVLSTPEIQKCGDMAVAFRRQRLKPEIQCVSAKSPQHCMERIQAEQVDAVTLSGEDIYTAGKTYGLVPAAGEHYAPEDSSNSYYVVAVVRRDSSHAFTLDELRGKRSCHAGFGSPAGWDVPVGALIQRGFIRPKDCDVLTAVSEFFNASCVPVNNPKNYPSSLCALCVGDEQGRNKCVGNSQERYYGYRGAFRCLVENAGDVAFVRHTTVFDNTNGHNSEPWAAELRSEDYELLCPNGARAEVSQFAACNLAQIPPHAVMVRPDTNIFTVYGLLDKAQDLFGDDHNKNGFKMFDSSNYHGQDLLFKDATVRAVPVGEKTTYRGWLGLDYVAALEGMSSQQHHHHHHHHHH

T2: Mouse CD228 protein (mouse, UniProt Q9R0R1 20-708, limits assumed)
T2 construct: Recombinant His-tagged protein from CHO cells
T2 chain: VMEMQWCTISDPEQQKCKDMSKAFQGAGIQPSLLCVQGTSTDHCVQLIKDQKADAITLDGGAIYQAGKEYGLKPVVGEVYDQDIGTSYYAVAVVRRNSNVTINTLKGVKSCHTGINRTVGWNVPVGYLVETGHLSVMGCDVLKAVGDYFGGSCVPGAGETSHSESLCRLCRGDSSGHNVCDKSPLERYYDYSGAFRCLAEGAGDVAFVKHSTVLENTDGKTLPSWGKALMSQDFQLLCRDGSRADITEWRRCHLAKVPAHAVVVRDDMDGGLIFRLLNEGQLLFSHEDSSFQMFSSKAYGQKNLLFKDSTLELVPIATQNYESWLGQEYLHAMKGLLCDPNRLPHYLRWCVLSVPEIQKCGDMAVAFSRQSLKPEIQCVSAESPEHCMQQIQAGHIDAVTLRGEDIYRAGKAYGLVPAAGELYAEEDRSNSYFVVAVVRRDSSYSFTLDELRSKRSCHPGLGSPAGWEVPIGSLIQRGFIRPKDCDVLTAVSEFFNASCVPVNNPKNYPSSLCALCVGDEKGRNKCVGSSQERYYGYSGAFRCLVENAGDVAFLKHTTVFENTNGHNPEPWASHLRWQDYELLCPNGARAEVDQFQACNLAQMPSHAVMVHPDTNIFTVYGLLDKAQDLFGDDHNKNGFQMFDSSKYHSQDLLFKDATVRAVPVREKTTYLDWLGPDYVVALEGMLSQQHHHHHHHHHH


Experiments:
Human CD228 protein [1] = biological target: T1, Human CD228 protein; experiment: Octet competition on His-chip CD228; competitor: BA352
Procedure: (§1) CD228 proteins were immobilized on His chips at 10 μg/mL with a threshold of 0.5 nm. The first CD228 antibody (30 μg/mL) was immobilized, and the competitive binding of the second CD228 antibody (30 μg/mL) was analyzed. The Octet 8K system was used to analyze the response of antibody 2 and to determine whether antibody 1 and antibody 2 were in competition.

Human CD228 protein [2] = biological target: T1, Human CD228 protein; experiment: ELISA, plate coated with human CD228 protein
Procedure: Human CD228 protein (prepared by Boan, 20201014, SEQ ID NO: 41) was diluted to 0.1 μg/mL with a carbonate-buffered saline (hereinafter referred to as CBS) at pH 9.6. Microplates were coated with the protein at 100 μL/well, and incubated at 4° C. overnight. After washing, the microplates were blocked with skimmed milk powder. The plates were washed, before antibodies diluted with PBST (phosphate-buffered saline, Solarbio P1010, +0.05% Tween20) were added at 100 μL/well. The diluted antibodies were intact antibodies comprising Fc, Fab and the constant region serially 3-fold diluted from 0.1 μg/mL to 8 concentrations with PBST. After washing the plates, goat anti-human IgG (H+L)/HRP (diluted at 1:5000, KPL, 474-1006) was added at 100 μL/well, and the plates were incubated at 37° C. for 1 h. After washing the plates, TMB (Beijing Makewonderbio, 1001) was added at 100 μL/well for chromogenesis, and after 10 min, 50 μL of 2 M H₂SO₄ was added to stop the chromogenesis. OD450 was measured on a microplate reader. The antibody hL49 targeting CD228 from Seagen was used as a reference antibody in this study and the following studies.

Human CD228 protein [3] = biological target: T1, Human CD228 protein; experiment: Octet competition on His-chip CD228; competitor: CA149
Procedure: as §1

Human CD228 protein [4] = biological target: T1, Human CD228 protein; experiment: Octet competition on His-chip CD228; competitor: CA518
Procedure: as §1

Human CD228 protein [5] = biological target: T1, Human CD228 protein; experiment: Octet, CD228 on His chip; PBST buffer in place of the first antibody
Procedure: as §1

Human CD228 protein [6] = biological target: T1, Human CD228 protein; experiment: Octet competition on His-chip CD228; competitor: CA13
Procedure: as §1

Mouse CD228 protein = biological target: T2, Mouse CD228 protein; experiment: SPR, BIAcore 8K; antibody on ProA chip, CD228 protein as analyte
Procedure: The binding kinetics of the antibodies to the CD228 proteins was measured using the BIAcore 8K system based on surface plasmon resonance (SRP). CD228 antibodies were immobilized on ProA chips at a concentration of 2 μg/mL, and the binding activity of the CD228 antibodies to human, monkey, and mouse CD228 proteins was analyzed. Human, monkey and mouse CD228 proteins were serially 2-fold diluted from 50 nM to 5 concentrations with an HBS-EP+ buffer. The binding kinetics of the CD228 proteins were analyzed by Biacore, and the affinity activity KD values were calculated by fitting.

Human CD228 protein [7] = biological target: T1, Human CD228 protein; experiment: Octet competition on His-chip CD228; competitor: CA185
Procedure: as §1

Binder	Octet response value (Human CD228 protein [1])	EC50 (Human CD228 protein [2])	Octet response value (Human CD228 protein [3])	Octet response value (Human CD228 protein [4])	Octet response value (blank value, PBST buffer) (Human CD228 protein [5])	Octet response value (Human CD228 protein [6])	binding result (Mouse CD228 protein)	Octet response value (Human CD228 protein [7])
BA352 (antibody, human IgG1, kappa, V domains shown, Intact IgG1) VH: EVQLVESGGGVVQPGRSLRLSCAASGFTFSSYAMHWVRQAPGKGLEWVAVISYDGSNKYYADSVKGRFTISRDNSKNTLYLQMNSLRAEDTAVYYCARGPYLAAAGTALTFDIWGQGTMVTVSS VL: DIQMTQSPSAMSASVGDRVTITCRASQGINNYLAWFQQKPGKVPKRLIYAASSLQSGVPSRFSGSGSGTEFTLTISSLQPEDFATYYCLQHNSYPFTFGPGTKVDIKR	0.0217	6.1 ng/mL	0.416	0.458	0.393	0.424	no binding	0.426
CA13 (antibody, human IgG1, kappa, V domains shown, Intact IgG1 from fully human antibody-transgenic mice) VH: EVQLVESGGGVVQPGRSLRLSCAASGFTFSSYAMHWVRQAPGKGLEWVAVISYDGSNKYYADSVKGRFTISRDNSKNTLFLQMNSLRAEDTAVYYCARDVYHYGSRSPYYYGMDVWGQGTTVTVSS VL: DIVMTQSPSSLSASVGDRVTITCRASQGISNYLAWFQQKPGKVPKLLIYAASTLQSGVPSRFSGSGSGTDFTLTISSLQPEDVATYYCQKYNSAPFTFGPGTKVDIKR	0.427	3.2 ng/mL	-0.0059	-0.0081	0.393	-0.0011	no binding	-0.0061
CA67 (antibody, human IgG1, kappa, V domains shown, Intact IgG1) VH: EVQLVESGGGVVQPGRSLRLSCAASGFTFSSYAMHWVRQAPGKGLEWVAVISYDGSNKYYADSVKGRFTISRDNSKNTLYLQMNSLRAEDTAVYYCARDVYHYGSRSPYYYGMDVWGQGTTVTVSS VL: DIQMTQSPSSLSASVGDRVTITCRASQAISNYLAWYQQKPGKVPKLLIYAASTLHPGVPSRFSGSGSGTDFTLTISSLQPEDVATYYCQKYNSAPFTFGPGTKVDIKR	0.423	3.8 ng/mL	-0.012	-0.0133	0.425	-0.0065	no binding	-0.0132

Results, then the binder that gave them:

Octet response value (Human CD228 protein [1])	EC50 (Human CD228 protein [2])	Octet response value (Human CD228 protein [3])	Octet response value (Human CD228 protein [4])	Octet response value (blank value, PBST buffer) (Human CD228 protein [5])	Octet response value (Human CD228 protein [6])	binding result (Mouse CD228 protein)	Octet response value (Human CD228 protein [7])	Binder
0.442	3.6 ng/mL	0.0039	0.0079	0.409	0.0117	no binding	0.0102	CA149 (antibody, human IgG1, kappa, V domains shown, Intact IgG1; also called CA149 antibody) VH: EVQLVESGGGVVQPGRSLRLSCAASGFTFSSYAMHWVRQAPGKGLEWVAVISFDGSNKYYTDSVKGRFTISRDNSKNTLYLQMNSLRAEDTAVYYCAREVPYYYGSGPFDYWGQGTLVTVSS VL: EIVLTQSPATLSVSPGERATLSCRASQSVSSNLAWYQQKPGQAPRHLIDGASSRASGIPDRFSGSGSGTDFTLTISRLEPEDFAVYYCQQYGSSPPFTFGPGTKVDIKR
0.459	3.9 ng/mL	0.0089	0.0029	0.411	0.0046	no binding	0.0055	CA185 (antibody, human IgG1, kappa, V domains shown, Intact IgG1) VH: EVQLVESGGGVVQPGRSLRLSCAASGFTFSSYAMHWVRQAPGKGLEWVAVISYDGSNKYYADSVKGRFTISRDNSKNTLYLQMNSLRAEDTAVYYCAREVPYYYGSGPFDYWGQGTLVTVSS VL: EIVLTQSPGTLSLSPGERATLSCRASQSVSSSSLAWYQQKPGQAPRHLIDGASSRASGIPDRFSGSGSGTDFTLTISRLEPEDFAVYYCQQYGSSYTFGQGTKVDIKR
0.177	27.8 ng/mL	0.435	0.456	0.347	0.418	no binding	0.432	reference antibody hL49 (antibody, human IgG1, kappa, V domains shown, also called H149; hL49 analogy) VH: QVQLQESGPGLVKPSETLSLTCTVSGDSITSGYWNWIRQPPGKGLEYIGYISDSGITYYNPSLKSRVTISRDTSKNQYSLKLSSVTAADTAVYYCARRTLATYYAMDYWGQGTLVTVSS VL: DFVMTQSPLSLPVTLGQPASISCRASQSLVHSDGNTYLHWYQQRPGQSPRLLIYRVSNRFSGVPDRFSGSGSGTDFTLKISRVEAEDVGVYYCSQSTHVPPTFGQGTKLEIKR
0.415	4.3 ng/mL	-0.0041	-0.0046	0.442	0.006	no binding	-0.0043	CA518 (antibody, human IgG1, kappa, V domains shown, Intact IgG1) VH: EVQLVESGGGVVQPGRSLRLSCAASGFTFSSYAMHWVRQAPGKGLEWVAVISYDGSNKYHADSVKGRFTISRDNSKNTLFLQMNSLRAEDTAVYYCVRDVYHYGSRSPYYYGMDVWGQGTTVTVSS VL: DIQMTQSPSSVSASVGDRVTITCRASQGISSWLAWYQQKPGKAPKLLIYAASSLQSGVPSRFSGSGSGTDFTLTISSLQPEDVATYYCQKYNSAPFTFGPGTKVDIKR

From patent US20250121082A1 (SHANDONG BOAN BIOTECHNOLOGY, published 2025)
